Target: RORγ-mCherry (UniProt P51450)
Sequence of UniProt P51450 (P51450 whole entry): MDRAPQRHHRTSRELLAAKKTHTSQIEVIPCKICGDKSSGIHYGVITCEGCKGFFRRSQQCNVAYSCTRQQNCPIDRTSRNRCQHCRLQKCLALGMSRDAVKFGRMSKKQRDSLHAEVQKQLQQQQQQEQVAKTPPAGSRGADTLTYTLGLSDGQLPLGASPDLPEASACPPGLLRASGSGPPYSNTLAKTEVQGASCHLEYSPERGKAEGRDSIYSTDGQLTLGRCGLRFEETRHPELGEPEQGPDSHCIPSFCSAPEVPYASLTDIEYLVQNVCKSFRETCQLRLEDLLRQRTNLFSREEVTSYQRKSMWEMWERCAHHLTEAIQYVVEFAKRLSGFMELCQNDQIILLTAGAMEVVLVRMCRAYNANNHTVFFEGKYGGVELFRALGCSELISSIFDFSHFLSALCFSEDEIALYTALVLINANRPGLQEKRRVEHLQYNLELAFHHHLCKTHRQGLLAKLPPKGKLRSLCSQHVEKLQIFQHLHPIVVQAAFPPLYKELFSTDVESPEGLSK

Binder	nuclear localisation of PΔC636 in COS-1 cells: percent of cells with the mutant predominantly in the nucleus on co-expression with RORγ (6% when expressed alone) (% of the cells)	nuclear localisation of PΔN106 in COS-1 cells: percent of cells with the mutant principally in the nucleus on co-expression with RORγ (50% when expressed alone) (% of the cells)
Myc-Prox1 PΔC636 (domain or fragment) MPDHDSTALLSRQTKRRRVDIGVKRTVGTASAFFAKARATFFSAMNPQGSEQDVEYSVVQHADGEKSNVLRKLLKRANSYEDAMMPFPGATIISQLLKNNMNKNGGTEPSFQASGLSSTGSEVHQEDICSNSSRDSPPECLSPFGRPTMSQFDVDRLCDEHLRAKRARVENIIRGMSHSPSVALRGNENEREMAPQSVSPRESYRENKRKQKLPQQQQQSFQQLVSARKEQKREERRQLKQQLEDMQKQLRQLQEKFYQVYDSTDSENDEDGDLSEDSMRSEILDARAQDSVGRSDNEMCELDPGQFIDRARALIREQEMAENKPKREGSNKERDHGPNSLQPEGKHLAETLKQELNTAMSQVVDTVVKVFSAKPSRQVPQVFPPLQIPQARFAVNGENHNFHTANQRLQCFGDVIIPNPLDTFGSVQMPSSTDQTEALPLVVRKNSSEQSASGPATGGHHQPLHQSPLSATAGFTTPSFRHPFPLPLMAYPFQSPLGAPSGSFSGKDRASPESLDLTRDTTSLRTKMSSHHLSHHPCSPAHPPSTAEGLSLSLIKSECGDLQDMSDISPYSGSAMQEGLSPNHLKKAKLMFFYTRYPSSNMLKTYFSDVKFNRCITSQLIKWFSNFREFYYIQME	80	
Myc-Prox1 PΔN106 (domain or fragment) TEPSFQASGLSSTGSEVHQEDICSNSSRDSPPECLSPFGRPTMSQFDVDRLCDEHLRAKRARVENIIRGMSHSPSVALRGNENEREMAPQSVSPRESYRENKRKQKLPQQQQQSFQQLVSARKEQKREERRQLKQQLEDMQKQLRQLQEKFYQVYDSTDSENDEDGDLSEDSMRSEILDARAQDSVGRSDNEMCELDPGQFIDRARALIREQEMAENKPKREGSNKERDHGPNSLQPEGKHLAETLKQELNTAMSQVVDTVVKVFSAKPSRQVPQVFPPLQIPQARFAVNGENHNFHTANQRLQCFGDVIIPNPLDTFGSVQMPSSTDQTEALPLVVRKNSSEQSASGPATGGHHQPLHQSPLSATAGFTTPSFRHPFPLPLMAYPFQSPLGAPSGSFSGKDRASPESLDLTRDTTSLRTKMSSHHLSHHPCSPAHPPSTAEGLSLSLIKSECGDLQDMSDISPYSGSAMQEGLSPNHLKKAKLMFFYTRYPSSNMLKTYFSDVKFNRCITSQLIKWFSNFREFYYIQMEKYARQAINDGVTSTEELSITRDCELYRALNMHYNKANDFEVPERFLEVAQITLREFFNAIIAGKDVDPSWKKAIYKVICKLDSEVPEIFKSPNCLQELLHE		90

Reference: PMC3737549
